From PMC3154929, “Phosphatase-Coupled Universal Kinase Assay and Kinetics for First-Order-Rate Coupling Reaction” (PLoS ONE, 2011)

Experiments:
[1] = substrate: Nc1ncnc2c1ncn2[C@@H]1O[C@H](COP(=O)(O)OP(=O)(O)O)[C@@H](O)[C@H]1O; assay: malachite green phosphate release assay; assay type: biochemical, Mus musculus; settings: 25 mM Tris, 150 mM NaCl, 10 mM MgCl2, 10 mM CaCl2, pH 7.5, room temperature
Source text: (§1) malachite green phosphate release assay on CD39L2 (ENTPD6)

[2] = substrate: Nc1ncnc2c1ncn2[C@@H]1O[C@H](COP(=O)(O)OP(=O)(O)OP(=O)(O)O)[C@@H](O)[C@H]1O; assay: malachite green phosphate release assay; assay type: biochemical, Mus musculus; settings: 25 mM Tris, 150 mM NaCl, 10 mM MgCl2, 10 mM CaCl2, pH 7.5, room temperature
Source text: as §1

purified protein = substrate: Nc1ncnc2c1ncn2[C@@H]1O[C@H](COP(=O)(O)OP(=O)(O)OP(=O)(O)O)[C@@H](O)[C@H]1O; assay: purified protein; assay type: biochemical, Homo sapiens; settings: 20 mM glucose, 10 mM MgCl2, 10 mM CaCl2, 150 mM NaCl, 25 mM Tris pH 7.5, room temperature

B1: CD39L2 (ENTPD6) (Mus musculus) (protein)
chain: MRKIPNHGTLRMTKVAYPLGLCVGLFIYVAYIKWHRASAAQAFFTIAGAASGARWTQQAFSSPGSAARGHEVFYGIMFDAGSTGTRIHVFQFARPPGETPTLTHETFKALKPGLSAYADDVEKSAQGIQELLNVAKQHIPYDFWKATPLVLKATAGLRLLPGEKAQKLLQKVKEVFKASPFLVGDDCVSIMNGTDEGVSAWITVNFLTGSLKTPGSSSVGMLDLGGGSTQITFLPRVEGTLQASPPGHLTALQMFNRTYKLYSYSYLGLGLMSARLAILGGVEGKPAENDKELVSPCLSPRFRGEWEHAEVTYRISGQKAVGLYELCASRVSEVLRNKVHRTEEAQHVDFYAFSYYYDLAASFGLIDAEKGGSLVVGDFEIAAKYVCRTLETQPPSSPFACMDLTYISLLLHEFGFPGDKVLKLARKIDNVETSWALGAIFHYIDSLKRQKVPAL
notes: recombinant, R&D Systems
Km [1]: 1050 µM
Vmax [1]: 49.1 µmol/min/mg
kcat [1]: 38.5 s⁻¹
kcat/Km [1]: 36600 M⁻¹ s⁻¹
Km [2]: 1140 µM
Vmax [2]: 0.928 µmol/min/mg
kcat [2]: 0.617 s⁻¹
kcat/Km [2]: 727 M⁻¹ s⁻¹

B2: human glucokinase (GCK) (Homo sapiens) (protein)
chain: VEQILAEFQLQEEDLKKVMRRMQKEMDRGLRLETHEEASVKMLPTYVRSTPEGSEVGDFLSLDLGGTNFRVMLVKVGEGEEGQWSVKTKHQMYSIPEDAMTGTAEMLFDYISECISDFLDKHQMKHKKLPLGFTFSFPVRHEDIDKGILLNWTKGFKASGAEGNNVVGLLRDAIKRRGDFEMDVVAMVNDTVATMISCYYEDHQCEVGMIVGTGCNACYMEEMQNVELVEGDEGRMCVNTEWGAFGDSGELDEFLLEYDRLVDESSANPGQQLYEKLIGGKYMGELVRLVLLRLVDENLLFHGEASEQLRTRGAFETRFVSQVESDTGDRKQIYNILSTLGLRPSTTDCDIVRRACESVSTRAAHMCSAGLAGVINRMRESRSEDVMRITVGVDGSVYKLHPSFKERFHASVRRLTPSCEITFIESEEGSGRGAALVSAVACKKACMLGQ
notes: V16 to Q465, N-terminal 6xHis tag, expressed in E. coli
Km (purified protein): 3550 µM
